Assay results as given in publication PMC5817926.

Assays:
[1] = biological target: (I27)8 polyprotein of the I27th Ig domain of titin; assay: single-molecule force-clamp spectroscopy (AFM); collapsed (molten globule-like) states: polyprotein tethered between a gold surface and the cantilever tip, unfolded, force quenched for tq 0.5 to 15 s with 5 uM chaperone (DnaK with ADP); refolding yield read in a test pulse; constants from a multiparametric fit of a kinetic model; PBS + 5 mM MgCl2, pH 7.4, 22 C
[2] = biological target: ubiquitin polyprotein composed of nine identical repeats (Ubi)9 (UniProt P0CG48); assay: as above
[3] = biological target: (I27)8 polyprotein of the I27th Ig domain of titin; assay: single-molecule force-clamp spectroscopy (AFM) with a kinetic model fit; polyprotein tethered between gold and cantilever, 5 uM chaperone in solution (DnaK with ADP); PBS + 5 mM MgCl2 pH 7.4, 22 C; binding to the collapsed state during the quench at 0 pN (tq 0.5-15 s); constants from a multiparametric fit of the kinetic model to the refolding kinetics
[4] = biological target: ubiquitin polyprotein composed of nine identical repeats (Ubi)9 (UniProt P0CG48)
[5] = biological target: (I27)8 polyprotein of the I27th Ig domain of titin
[6] = biological target: ubiquitin polyprotein composed of nine identical repeats (Ubi)9 (UniProt P0CG48); remark: listed apart in the source
[7] = biological target: ubiquitin polyprotein composed of nine identical repeats (Ubi)9 (UniProt P0CG48); remark: listed apart in the source
[8] = biological target: ubiquitin polyprotein composed of nine identical repeats (Ubi)9; assay: single-molecule force-clamp spectroscopy (AFM) with a kinetic model fit; (Ubi)9 tethered between gold and cantilever, 5 uM chaperone in solution (DnaK with ADP); PBS + 5 mM MgCl2 pH 7.4, 22 C; binding to ubiquitin mechanically unfolded and held extended at 120 pN; constants from a multiparametric fit of ordinary differential equations to the refolding yields
[9] = biological target: ubiquitin polyprotein composed of nine identical repeats (Ubi)9 (UniProt P0CG48); assay: single-molecule force-clamp spectroscopy (AFM); extended state: polyprotein tethered between a gold surface and the cantilever tip, unfolded and held extended at high force (120 pN; 170 pN for the constants of the extended conformation) for text 1 to 30 s with 5 uM chaperone (DnaK with ADP); refolding yield read in a test pulse after tq = 5 s; constants from a multiparametric fit of a kinetic model; PBS + 5 mM MgCl2, pH 7.4, 22 C
[10] = biological target: ubiquitin polyprotein composed of nine identical repeats (Ubi)9 (UniProt P0CG48); remark: listed apart in the source
[11] = biological target: ubiquitin polyprotein composed of nine identical repeats (Ubi)9; assay: single-molecule force-clamp spectroscopy (AFM) with a kinetic model fit; (Ubi)9 tethered between gold and cantilever, 5 uM DnaJ in solution; PBS + 5 mM MgCl2 pH 7.4, 22 C; binding to ubiquitin held extended at 170 pN for text 0-30 s, quench 5 s; kon and koff of the extended state as free parameters of the kinetic model

DnaK (Hsp70), sequence (P0A6Y8 whole entry): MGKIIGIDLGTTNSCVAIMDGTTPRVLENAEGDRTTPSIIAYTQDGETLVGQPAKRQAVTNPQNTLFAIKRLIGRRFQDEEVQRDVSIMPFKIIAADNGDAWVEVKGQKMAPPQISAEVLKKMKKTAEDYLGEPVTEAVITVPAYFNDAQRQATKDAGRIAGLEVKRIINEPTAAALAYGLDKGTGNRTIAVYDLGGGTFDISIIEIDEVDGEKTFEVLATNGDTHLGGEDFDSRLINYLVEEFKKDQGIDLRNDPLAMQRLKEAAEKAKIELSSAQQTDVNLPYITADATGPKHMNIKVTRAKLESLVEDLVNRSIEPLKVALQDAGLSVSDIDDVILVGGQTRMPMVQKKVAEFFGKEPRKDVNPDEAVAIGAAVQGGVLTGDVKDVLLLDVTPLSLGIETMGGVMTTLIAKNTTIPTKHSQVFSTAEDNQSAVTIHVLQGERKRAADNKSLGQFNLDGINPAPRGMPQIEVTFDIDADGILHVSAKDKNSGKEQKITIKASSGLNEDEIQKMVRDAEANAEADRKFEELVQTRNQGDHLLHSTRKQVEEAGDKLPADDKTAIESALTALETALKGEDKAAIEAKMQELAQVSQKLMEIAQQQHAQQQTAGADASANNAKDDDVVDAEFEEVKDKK
DnaJ (Hsp40), sequence (P08622 whole entry): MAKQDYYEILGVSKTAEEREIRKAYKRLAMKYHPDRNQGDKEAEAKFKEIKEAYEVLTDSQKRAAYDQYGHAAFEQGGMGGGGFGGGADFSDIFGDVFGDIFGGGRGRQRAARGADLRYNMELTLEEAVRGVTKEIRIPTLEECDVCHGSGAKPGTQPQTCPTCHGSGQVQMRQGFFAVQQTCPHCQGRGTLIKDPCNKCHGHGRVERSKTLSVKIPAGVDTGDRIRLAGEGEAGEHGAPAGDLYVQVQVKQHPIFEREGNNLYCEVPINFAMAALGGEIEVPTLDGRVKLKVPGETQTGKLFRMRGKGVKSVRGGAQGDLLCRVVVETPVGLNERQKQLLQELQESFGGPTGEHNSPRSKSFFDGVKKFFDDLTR

Kd [1] | Kd [2] | koff [3] | plateau of the refolding yield of ubiquitin in force-quench trajectories (tq 0.5 to 15 s) with 5 μM DnaK(ADP) [4] | refolding yield of I27 with DnaK(ADP) [5] | plateau of the refolding yield of ubiquitin in force-quench trajectories (tq 0.5 to 15 s) with 5 μM DnaJ (~75% without DnaJ) [6] | rate of the exponential decrease of the refolding efficiency of ubiquitin with the time held extended (text 1 to 30 s, tq = 5 s) with 5 μM DnaJ [7] | kon [1] | koff [8] | kon [8] | Kd [9] | refolding percentage of ubiquitin after 15 s stretched at 50 to 300 pN with DnaJ, tq = 5 s (10% at 150 to 170 pN, ~30% at 300 pN, ~50% at 50 pN) [10] | kon [11] | Substance
270 nM | 140 nM | 0.029 s⁻¹ | 30% | 50% | – | – | – | – | – | – | – | – | DnaK (Hsp70) (from UniProt P0A6Y8 1-638) (natural protein)
330 nM | – | 0.0472 s⁻¹ | – | – | 30% | 0.27 s⁻¹ | 250000 M⁻¹ s⁻¹ | 0.0492 s⁻¹ | 29900 M⁻¹ s⁻¹ | 940 nM | 50% | 48700 M⁻¹ s⁻¹ | DnaJ (Hsp40) (from UniProt P08622 1-376) (natural protein)
